Measurements: patent US10398755B2, “Clusterin pharmaceuticals and treatment methods using the same” (UNIVERSITY OF SOUTHERN CALIFORNIA, priority 2009, dated 2019)

Assays:
[1] = target: T1, pro-MMP-9, MMP-9, MMP-9-ΔC (Mus musculus, UniProt P41245); assay: In vitro protein binding assay (CLU-His pull-down, gelatin zymography), MMP-9 forms
T1 construct: mixture of 30-100 ng of pro-MMP-9, MMP-9, and MMP-9-ΔC; pro-MMP-9, propeptide-cleaved MMP-9 (MMP-9), and MMP-9 with both propeptide and C-terminal region cleaved (MMP-9-ΔC); MMP-9 with both propeptide and C-terminal region cleaved (MMP-9-ΔC); purchased R&D Systems; host or cells: mouse myeloma cell line (NSO)
Description: (§1) (A) Recombinant proteins, Pro-MMP-9, MMP-9, MMP-9-ΔC, CLU-His were incubated together, and bound to agarose beads coupled or uncoupled with Anti-(His)6 antibody in two different binding buffers containing Brij 35 concentrations, 0.04% or 0.002%. MMPs bound to the beads were obtained by washing with the corresponding binding buffer to resolve on gelatin zymography. Three different volumes of each sample were loaded to compare the relative density. (B) Pro-MMP-9 bound to CLU coupled to agarose beads, prepared as in (A), was incubated in the presence or absence of APMA for 1 h at RT, prior to separation of beads (B) and supernatant (S) fractions, which were resolved by zymography. Arrow indicates MMP-9 processed by APMA.
(§2) A mixture of MMP-2, MMP-9, and C-terminal truncated MMP-9 (9-ΔC) was incubated with His-tagged CLU, used in a pull-down assay and resolved on a gelatin zymography gel. The input and bound samples were loaded in a series of dilution.
(§3) To make various processed forms of MMPs, pro-MMPs were incubated with 1 mM APMA in TSCB buffer at 37° C. for 4 h to make C-terminal truncated processed MMP-9 (MMP-9-ΔC) [Murphy, 1995]. CLU-His (2.5 μg) was incubated with mixture of 30-100 ng of pro-MMP-9, MMP-9, and MMP-9-ΔC, in the TSCB buffer with 0.002 or 0.04% Brij 35 for 1 h at 4° C. followed by additional incubation for 1.5 h with anti-His tag antibody-conjugated agarose beads. The beads were washed three times with the binding buffer, and dissolved in 1×SDS sample loading buffer. Relative amounts of bound MMPs were assessed on the gelatin zymography. In order to perform CLU binding domain analysis, pro-MMP-9 bound to CLU-coupled beads was prepared, as described above, and then divided into two aliquots. They were incubated with and without 1 mM APMA at RT for 1 h in TSCB buffer on the rotator. The beads (B) were spun down and solution (S) was separated. The beads were washed with TSCB and resuspended in SDS sample loading buffer. Equivalent volume of S and B fraction were subjected to gelatin zymography.
(§4) Next, we tested the interaction of secreted CLU using mouse recombinant proteins. We used purified recombinant proteins of MMP-2, MMP-9, and CLU that were secreted from a mouse myeloma cell line (NSO). All of the proteins were purchased from R&D Systems. A mixture of MMP-2, MMP-9, and C-terminal truncated MMP-9 (9-ΔC) was incubated with His-tagged CLU, and subjected to the pull-down assay, using 150 mM NaCl-containing binding buffer and anti-His tag antibody resins. Portions of the input samples (Input) and proteins bound to the antibody (Bound) were resolved on the gelatin zymography gel.
(§5) The recombinant CLU contains a (His)6-Tag at the C-terminus of the protein, which was used for pull-down experiments with anti-His tag antibody beads. It was previously reported that CLU also binds to MT6-MMP/mmp-25 and that the hemopexin domain in the MMP C-terminal region is required for their interaction (Matsuda et al., 2003). To use as an internal control for the binding experiment, we removed part of MMP-9 (MMP-9-ΔC) by promoting self-processing by APMA (4-aminophenylmercuric acetate) treatment. For the in vitro binding assay we mixed MMP-2, MMP-9, and MMP-9-ΔC (FIG. 7).
(§6) Since different detergent concentrations affected the extent of inhibition of MMP-9 activity by CLU, we tested whether detergents may influence the binding affinity of CLU for MMP-9. To test this possibility, CLU pull down assay was performed. […]

[2] = tested on: pro-MMP-9, MMP-9, MMP-9-ΔC; assay: as above; set-up: species or system mouse
Description: as §1, §2, §3, §4, §5, §6

MMP-2 = target: T2, MMP-2 (Mus musculus, UniProt P33434); assay: In vitro protein binding assay (CLU-His pull-down, gelatin zymography), MMP-2; details: 150 mM NaCl binding buffer
T2 construct: purchased R&D Systems
Description: as §2, §4
as §5, with “For the in vitro binding assay we mixed MMP-2, MMP-9, and MMP-9-ΔC (FIG. 7).” left out

T1 sequence (P41245 20-730, stated change not applied): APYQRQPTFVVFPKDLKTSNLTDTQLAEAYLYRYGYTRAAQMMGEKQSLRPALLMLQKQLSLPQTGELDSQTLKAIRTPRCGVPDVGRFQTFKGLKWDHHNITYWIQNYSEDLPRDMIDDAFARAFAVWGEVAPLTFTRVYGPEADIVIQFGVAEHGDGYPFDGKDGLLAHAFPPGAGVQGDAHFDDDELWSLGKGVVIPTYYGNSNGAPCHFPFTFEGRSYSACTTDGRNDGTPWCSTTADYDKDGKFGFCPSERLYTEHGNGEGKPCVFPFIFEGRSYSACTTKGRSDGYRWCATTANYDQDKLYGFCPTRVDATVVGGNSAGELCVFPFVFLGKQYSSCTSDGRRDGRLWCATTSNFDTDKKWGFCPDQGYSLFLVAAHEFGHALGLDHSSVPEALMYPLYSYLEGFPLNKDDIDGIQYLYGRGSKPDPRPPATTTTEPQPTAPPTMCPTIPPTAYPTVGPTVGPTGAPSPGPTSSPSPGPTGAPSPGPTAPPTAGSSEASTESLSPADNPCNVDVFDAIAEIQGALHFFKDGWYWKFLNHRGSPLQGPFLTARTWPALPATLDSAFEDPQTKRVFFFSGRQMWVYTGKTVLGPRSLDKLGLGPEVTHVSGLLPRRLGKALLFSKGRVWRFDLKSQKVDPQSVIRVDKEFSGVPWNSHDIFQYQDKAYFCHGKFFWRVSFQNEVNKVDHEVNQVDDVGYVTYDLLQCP
T2 sequence (P33434 110-662): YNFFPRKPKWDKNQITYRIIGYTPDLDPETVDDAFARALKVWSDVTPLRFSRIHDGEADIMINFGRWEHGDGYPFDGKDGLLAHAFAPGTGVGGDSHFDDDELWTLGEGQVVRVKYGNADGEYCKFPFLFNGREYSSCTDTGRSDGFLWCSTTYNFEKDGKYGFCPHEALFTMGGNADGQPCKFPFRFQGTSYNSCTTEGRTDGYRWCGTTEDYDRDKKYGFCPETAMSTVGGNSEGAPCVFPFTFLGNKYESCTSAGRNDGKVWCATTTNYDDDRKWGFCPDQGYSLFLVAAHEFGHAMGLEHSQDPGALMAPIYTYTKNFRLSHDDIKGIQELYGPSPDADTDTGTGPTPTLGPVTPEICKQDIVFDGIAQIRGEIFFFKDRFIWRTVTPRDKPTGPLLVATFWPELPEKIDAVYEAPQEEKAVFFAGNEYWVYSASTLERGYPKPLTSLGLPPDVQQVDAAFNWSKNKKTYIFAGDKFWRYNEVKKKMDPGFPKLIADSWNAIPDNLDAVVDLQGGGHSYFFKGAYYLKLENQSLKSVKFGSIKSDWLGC

B1: CLU: secreted disulfide-linked heterodimeric glycoprotein (70-80 KD); assays used recombinant mouse CLU with C-terminal (His)6 (protein, UniProt Q06890 22-448, looked up)
Clusterin: EQEVSDNELQELSTQGSRYINKEIQNAVQGVKHIKTLIEKTNAERKSLLNSLEEAKKKKEDALEDTRDSEMKLKAFPEVCNETMMALWEECKPCLKHTCMKFYARVCRSGSGLVGQQLEEFLNQSSPFYFWMNGDRIDSLLESDRQQSQVLDAMQDSFARASGIIDTLFQDRFFARELHDPHYFSPIGFPHKRPHFLYPKSRLVRSLMSPSHYGPPSFHNMFQPFFEMIHQAQQAMDVQLHSPAFQFPDVDFLREGEDDRTVCKEIRRNSTGCLKMKGQCEKCQEILSVDCSTNNPAQANLRQELNDSLQVAERLTEQYKELLQSFQSKMLNTSSLLEQLNDQFNWVSQLANLTQGEDKYYLRVSTVTTHSSDSEVPSRVTEVVVKLFDSDPITVVLPEEVSKDNPKFMDTVAEKALQEYRRKSRAE
modifications: C-terminal His6 tag
- sensitivity of pro-MMP-9 affinity for CLU to detergent concentration ([1]; 0.002% vs 0.04% Brij 35): not sensitive to the detergent concentration
- affinity of pro-MMP-9 for CLU relative to the other forms of MMP-9 ([1]; band densities, Image J): at least 10 times
- binding of MMP-9 and MMP-9-ΔC to CLU at high detergent ([2]; 0.04% Brij 35): do not bind to CLU at the high Brij 35 concentration
- binding of C-terminal truncated MMP-9 to His-tagged CLU ([2]; 150 mM NaCl binding buffer): did not
- binding of MMP-9 to His-tagged CLU (bound vs input) ([2]; 150 mM NaCl binding buffer): highly enriched in the bound sample
- binding of MMP-2 to His-tagged CLU (MMP-2): Though weaker than MMP-9, MMP-2 also had an affinity for CLU
